These results are taken from patent US20240287172A1 (SCIRHOM, published 2024).

A value given as a limit tells only on which side of the number the result lay.

For the assay, the target named is T1, hiR2-FL-L539A-T7 (human, UniProt Q6PJF5 1-856).
T1 construct: on MEF-DKO cells
T1 sequence: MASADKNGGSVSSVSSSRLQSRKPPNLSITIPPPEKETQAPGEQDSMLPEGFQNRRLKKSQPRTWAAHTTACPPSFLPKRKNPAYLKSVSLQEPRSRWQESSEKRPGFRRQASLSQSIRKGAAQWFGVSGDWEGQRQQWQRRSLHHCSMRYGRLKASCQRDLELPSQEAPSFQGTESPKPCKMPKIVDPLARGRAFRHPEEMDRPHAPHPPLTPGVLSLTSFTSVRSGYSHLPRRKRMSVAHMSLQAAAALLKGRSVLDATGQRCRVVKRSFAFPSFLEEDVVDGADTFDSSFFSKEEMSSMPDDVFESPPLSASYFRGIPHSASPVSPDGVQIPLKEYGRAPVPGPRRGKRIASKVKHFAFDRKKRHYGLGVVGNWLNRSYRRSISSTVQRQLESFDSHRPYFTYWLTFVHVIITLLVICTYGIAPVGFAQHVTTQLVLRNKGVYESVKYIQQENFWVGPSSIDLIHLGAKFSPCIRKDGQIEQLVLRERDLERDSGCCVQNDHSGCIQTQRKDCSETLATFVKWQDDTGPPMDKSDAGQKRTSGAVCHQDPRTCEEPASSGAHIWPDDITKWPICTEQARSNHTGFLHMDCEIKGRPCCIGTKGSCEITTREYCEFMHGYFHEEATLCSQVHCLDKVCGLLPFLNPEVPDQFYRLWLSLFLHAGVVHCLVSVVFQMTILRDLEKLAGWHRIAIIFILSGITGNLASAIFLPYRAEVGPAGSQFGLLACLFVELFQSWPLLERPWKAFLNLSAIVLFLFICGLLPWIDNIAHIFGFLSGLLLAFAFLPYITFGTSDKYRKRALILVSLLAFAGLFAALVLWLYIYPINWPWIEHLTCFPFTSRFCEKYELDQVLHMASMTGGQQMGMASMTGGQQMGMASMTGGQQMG
Kind of assay: FACS, MEF-DKO cells, 3 µg/ml. The text has this: In brief, immortalized MEF-DKO-hiR2-FL-G498A-T7, MEF-DKO-hiR2-FL-Q502R-T7, MEF-DKO-hiR2-FL-I509V-T7, MEF-DKO-hiR2-FL-Q512S-T7, MEF-DKO-hiR2-FL-R513E-T7, MEF-DKO-hiR2-FL-K514E-T7, MEF-DKO-hiR2-FL-D515E-T7, MEF-DKO-hiR2-FL-E518S-T7, MEF-DKO-hiR2-FL-T522V-T7, MEF-DKO-hiR2-FL-F523W-T7, MEF-DKO-hiR2-FL-Q527P-T7, MEF-DKO-hiR2-FL-D528I-T7, MEF-DKO-hiR2-FL-D529H-T7, MEF-DKO-hiR2-FL-T530P-T7, MEF-DKO-hiR2-FL-G531S-T7, MEF-DKO-hiR2-FL-P532A-T7, MEF-DKO-hiR2-FL-M534-T7, MEF-DKO-hiR2-FL-D535-T7, MEF-DKO-hiR2-FL-K536-T7, MEF-DKO-hiR2-FL-S537E-T7, MEF-DKO-hiR2-FL-D538L-T7, MEF-DKO-hiR2-FL-L539A-T7, MEF-DKO-hiR2-FL-Q541H-T7, MEF-DKO-hiR2-FL-T544Q-T7, MEF-DKO-hiR2-FL-S545F-T7, MEF-DKO-hiR2-FL-A547S-T7, MEF-DKO-hiR2-FL-T555V-T7, MEF-DKO-hiR2-FL-E557D-T7, MEF-DKO-hiR2-FL-A560S-T7 and MEF-DKO-hiR2-FL-S562E-T7 cells were harvested with 10 mM EDTA in PBS, washed and resuspended in FACS buffer (PBS, 3% FBS, 0.05% sodium azide), and seeded in Nunc U-bottom 96-well plates (Thermo Fisher Scientific, USA) at approximately 3×10⁵ cells per well. To pellet cells and remove supernatants, the plates were centrifuged at 1,500 rpm and 4° C. for 3 minutes. For primary staining, cells were resuspended in 100 μl per well of either FACS buffer alone (controls) or the purified antibodies 3, 5, 16, 22, 34, 42, 43, 44, 48, and 50 of the invention at 3 μg/ml in FACS buffer and incubated on ice for 1 hour. Afterwards, plates were centrifuged at 1,500 rpm and 4° C. for 3 minutes and washed twice with 200 μl per well of FACS buffer. For secondary staining, cells were spun down and resuspended in 100 μl per well of PE-conjugated goat anti-mouse IgG F(ab′)2 detection fragment (Dianova, Germany) diluted 1:100 in FACS buffer. Protected from light, the cell suspensions were incubated on ice for 1 hour. Plates were then centrifuged at 1,500 rpm and 4° C. for 3 minutes and washed three times with 200 μl per well of FACS buffer. Finally, cells were resuspended in 150 μl per well of FACS buffer and analyzed using a BD Accuri™ C6 Plus flow cytometer (Becton Dickinson, Germany).

B1: antibody 34 (antibody, V domains shown)
VH: QVTLKESGPGILQPSQTLSLTCSFSGFSLSTFSLGVGWIRQSSGKGLEWLAHIWWDDEKYYNPALKSRLTISKDTSKNQVFLKIANVDAADTATYYCARAYYSKSYYALDYWGQGTSVTVSS
VL: DIQMTQSPSSLSASLGERVSLTCRASQEISGYLSWLQQKPDGTIKRLIYAASTLDSGVPKRFSGSRSGSDYSLAISSLESEDFADYYCLQYANFPFTFGSGTKLEIK
notes: mouse IgG, kappa light chain; also called clone #34; purified antibody 34
On to B1, for which the “loss of binding vs wild type” value is at least 95%.

B2: antibody 48 (antibody, V domains shown)
VH: QVQLQQSGTELVRPGTSVKVSCKASGYAFTNYLIEWVKQRPGQGLEWIGVINPGSGFTKYNEKFKGKATLTADKSSSTVYMHLSSLTSEDSAVYFCARGLYRAMDYWGQGTSVTVSS
VL: DIQMTQSPASQSASLGESVTITCLASQTIATWLAWYQQKPGKSPQLLIYGATTLADGVPSRFSGGGSGTKFSFKISSLQAEDFVSYYCQQLYSTPYTFGGGTKLEIK
notes: mouse IgG, kappa light chain; also called clone #48; purified antibody 48
In the case of B2, the “loss of binding vs wild type” value was at least 30%.

B3: antibody 16 (antibody, V domains shown)
VH: QVTLKESGPGILQPSQTLSLTCSFSGFSLSTFALGVGWIRQPSGRGLEWLAHIWWDDDKYYNPALKSRLTISKDTSKNHVFLKIANVDTADTATYYCARITTYYYGMDYWGQGTSVTVSS
VL: DIVLSQSPATLSVTPGDSVSLFCRASQSIGNHLHWYQQESHASPRLLIKYASQSISGIPSRFSGSGSGTDFTLSINSVETEDFGMYFCQQSYNWPLTFGAGTKLELK
notes: mouse IgG, kappa light chain; also called clone #16; purified antibody 16
As to B3, the “loss of binding vs wild type” value is at least 30%.

B4: antibody 3 (antibody, V domains shown)
VH: QVTLKESGPGILQPSQTLSLTCSFSGFSLTTFAMGIGWVRQPSGKGLEWLAHIWWDGEKYNNPVLKSRLTISKDTSKNQVFLRIANVDTPDTATYYCARISSIYYIIDNWGQGTSVTVSS
VL: DIVLTQSPATLSVTPGHSVSLSCRASQSISNNLHWYQKKSHESPRLLIKYVSQSISGIPSRFSGSGSGTDFTLSINSVETEDFGMYFCQQSYNWPLTFGAGTKLELK
notes: mouse IgG, kappa light chain; also called clone #3; purified antibody 3
As for B4, the “loss of binding vs wild type” value is at least 95%.

B5: antibody 5 (antibody, V domains shown)
VH: QVTLKESGPGILQPSQTLSLTCSFSGFSLSTFGMGVGWIRQPSGKGLEWLAHIWWDDEKYYNSALKSRLTISKATSKNQAFLKIANVDTADTATYYCARISNYGSNYWYFNVWGTGTTVTVSS
VL: QVVLTQSPALMSASPGEKVTMTCSAGSSVSCMYWYQQKPGSSPRVLIYDTSNLASGVPARFTGSGSGTSYSLTISRMEAEDAASYYCQQWNSYPLTFGAGTKLELK
notes: mouse IgG, kappa light chain; also called clone #5; purified antibody 5
On to B5, for which the “loss of binding vs wild type” value was at least 95%.

B6: antibody 44 (antibody, V domains shown)
VH: QVTLKESGPGILQPSQTLSLTCSFSGFSLSTFGMGVGWIRQPSEKGLEWLAHIWWDDDKYYNPALKSRLTISKDTSKNQIFLKITNVDTAETATYYCSRIGNYGSNYWYFDVWGTGTTVTVSS
VL: QIVLTQSPAVMSASPGEKVTMTCTASSSVYYMYWYQQTPGSSPRLLIYDTSNLASGVPVRFSGSGSGTSYSLTISRMEAEDAATYYCQQWNTYPLTFGAGTKLELK
notes: mouse IgG, kappa light chain; also called clone #44; purified antibody 44
B6: the “loss of binding vs wild type” value is at least 95%.

B7: antibody 42 (antibody, V domains shown)
VH: QVTLKESGPGILQPSQTLSLTCSLSGFSLSTFGRGVGWIRQPSGKGLEWLAHIWWDDEKYYNPALKSRLTISKDTSKNQVFLRIANVDTADTATYYCARIQNYGSNYWYFDVWGTGTTVTVSS
VL: LIVLTQSPAIMSASPGEKVTMTCGATSRISYMFWYQQKPGSSPRVLIYDTSNLASGVPVRFSGSGSGTSYSLTISRVEAEDVATYYCQQWNSYPLTFGAGTKLELK
notes: mouse IgG, kappa light chain; also called clone #42; purified antibody 42
B7: the “loss of binding vs wild type” value was at least 95%.

B8: antibody 43 (antibody, V domains shown)
VH: QVALKESGPGILQPSQTLSLTCSFSGFSLSTFGMGVGWIRQSSGKGLEWLANIWWDDDKYYNPALKSRLTISKDASKNQAFLKIANVDTADTATYYCARIGNYGSNYWYFDVWGTGTTVTVSS
VL: QIVLTQSPAIMSASPGERVTMTCSANSRISYMYWYQQKPGSSPRLLIYDTSNLASGVPVRFSGSGSGTSYSLTISRMEAEDAATYNCQQWSSYPLTFGAGTKLELK
notes: mouse IgG, kappa light chain; also called clone #43; purified antibody 43
In the case of B8, the “loss of binding vs wild type” value is at least 95%.

B9: antibody 22 (antibody, V domains shown)
VH: QVTLKESGPGILQPSQTLSLTCSFSGFSLSTFGMGVGWIRQPSGKGLEWLAHIWWDDEKYYNSALKSRLTISKATSKNQVFLKIANVDTADTATYYCARISNYGSNYWYFNVWGTGTTVTVSS
VL: QVVLTQSPALMSASPGEKVTMTCSAGSSVSYMYWYQQKPGSSPRVLIYDTSNLASGVPARFTGSGSGTSYSLTISRMEAEDAATYYCQQWNSYPLTFGAGTKLELK
notes: mouse IgG, kappa light chain; also called clone #22; purified antibody 22
For B9, the “loss of binding vs wild type” value is at least 95%.
